Consider 8 molecules from US20240158497A1 (published 2024).

The target of assay [1] is T1, human GP130 extracellular domain expressed with a C-terminal mouse IgG2a Fc tag (hGP130-mFc) (human).
T1 construct: also called dimeric human GP130
T1 chain: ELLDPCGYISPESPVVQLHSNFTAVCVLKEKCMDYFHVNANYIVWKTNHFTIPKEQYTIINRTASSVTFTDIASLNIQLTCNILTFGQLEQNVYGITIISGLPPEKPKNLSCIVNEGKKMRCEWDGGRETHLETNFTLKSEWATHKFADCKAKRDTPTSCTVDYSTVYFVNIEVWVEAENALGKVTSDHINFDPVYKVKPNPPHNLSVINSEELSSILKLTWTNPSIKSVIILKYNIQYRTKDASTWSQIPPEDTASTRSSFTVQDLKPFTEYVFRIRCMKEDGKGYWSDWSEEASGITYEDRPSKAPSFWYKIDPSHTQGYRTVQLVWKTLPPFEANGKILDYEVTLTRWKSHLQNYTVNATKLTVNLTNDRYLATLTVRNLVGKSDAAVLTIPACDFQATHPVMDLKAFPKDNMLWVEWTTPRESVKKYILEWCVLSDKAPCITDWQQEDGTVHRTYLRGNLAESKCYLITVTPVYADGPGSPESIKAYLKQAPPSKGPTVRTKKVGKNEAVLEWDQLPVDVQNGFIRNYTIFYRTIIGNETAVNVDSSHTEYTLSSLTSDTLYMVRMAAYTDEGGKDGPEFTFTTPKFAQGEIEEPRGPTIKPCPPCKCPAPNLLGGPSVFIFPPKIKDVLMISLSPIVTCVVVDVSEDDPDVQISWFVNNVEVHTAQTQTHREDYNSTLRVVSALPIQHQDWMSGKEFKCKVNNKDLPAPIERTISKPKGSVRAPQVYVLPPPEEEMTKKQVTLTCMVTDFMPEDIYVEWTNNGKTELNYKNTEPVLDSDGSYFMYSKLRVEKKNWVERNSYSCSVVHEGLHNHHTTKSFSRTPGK
The experiment in a line: SPR Biacore, mAb captured via anti-hFc, 37 C. Here is the method:
(§1) Equilibrium dissociation constant (KD) for different GP130 reagents binding to purified anti-GP130 monoclonal antibodies were determined using a real-time surface plasmon resonance based Biacore 4000 biosensor. All binding studies were performed in 10 mM HEPES, 150 mM NaCl, 3 mM EDTA, and 0.05% v/v Surfactant Tween-20, pH 7.4 (HBS-ET) running buffer at 25° C. and 37° C. The Biacore sensor surface was first derivatized by amine coupling with a monoclonal mouse anti-human Fc antibody (GE, #BR-1008-39) to capture anti-GP130 monoclonal antibodies. […] Reagents tagged with “mmH” are monomeric, whereas reagents tagged with “mFc” are dimeric. Thus, for example, “hGP130-mmH” is also referred to as “monomeric human GP130,” and “hGP130-mFc” is also referred to as “dimeric human GP130.”
(§2) The association rate (k a) and dissociation rate (kd) were determined by fitting the real-time binding sensorgrams to a 1:1 binding model with mass transport limitation using Scrubber 2.0c curve-fitting software. Binding dissociation equilibrium constant (KD) and dissociative half-life (t ½) were calculated from the kinetic rates as: […]
Background: SPR reads the build-up and loss of mass on a sensor chip optically.

Assay [2] deals with T2, mouse GP130 extracellular domain expressed with a C-terminal myc-myc-hexahistidine tag (mGP130-mmH) (mouse, UniProt Q00560 23-617).
T2 construct: Monomeric; the entry includes the myc-myc-His tag
The experiment in a line: SPR Biacore, mAb captured via anti-hFc, 37 C. Here is the method:
as §1, §2

The target in assay [3] is T3, rat GP130 extracellular domain expressed with a C-terminal myc-myc-hexahistidine tag (rGP130-mmH) (rat, UniProt P40190 23-618).
T3 construct: Monomeric; the entry includes the myc-myc-His tag
The experiment in a line: SPR Biacore, mAb captured via anti-hFc, 37 C. Here is the method: as §1, §2

In assay [4] the target is T1, human GP130 extracellular domain …. In words: SPR Biacore, mAb captured via anti-hFc, 25 C. The protocol:
as §1, §2

Assay [5] deals with T2, mouse GP130 extracellular domain …. The experiment in a line: SPR Biacore, mAb captured via anti-hFc, 25 C. Here is the method: as §1, §2
Assay [6] concerns the target T3, rat GP130 extracellular domain …. In words: SPR Biacore, mAb captured via anti-hFc, 25 C. The protocol:
as §1, §2

T2 sequence (Q00560 other isoform, or with tags, fused parts or gaps): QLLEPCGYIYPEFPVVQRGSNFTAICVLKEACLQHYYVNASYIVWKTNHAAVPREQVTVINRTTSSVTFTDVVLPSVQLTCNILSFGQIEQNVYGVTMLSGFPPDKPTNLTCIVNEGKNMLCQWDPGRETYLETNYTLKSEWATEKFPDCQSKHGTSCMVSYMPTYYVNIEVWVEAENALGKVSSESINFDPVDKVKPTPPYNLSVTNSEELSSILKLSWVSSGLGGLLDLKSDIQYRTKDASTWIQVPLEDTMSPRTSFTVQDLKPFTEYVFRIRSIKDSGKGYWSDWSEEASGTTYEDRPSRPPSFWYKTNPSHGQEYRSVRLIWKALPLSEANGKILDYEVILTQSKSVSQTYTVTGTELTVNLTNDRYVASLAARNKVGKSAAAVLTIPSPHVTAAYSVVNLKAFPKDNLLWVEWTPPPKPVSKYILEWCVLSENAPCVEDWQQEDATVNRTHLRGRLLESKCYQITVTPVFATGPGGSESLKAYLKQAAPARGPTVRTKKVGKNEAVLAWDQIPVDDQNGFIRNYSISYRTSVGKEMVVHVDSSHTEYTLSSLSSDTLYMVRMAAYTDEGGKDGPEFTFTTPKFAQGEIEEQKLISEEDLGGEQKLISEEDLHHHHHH
T3 sequence (P40190 other isoform, or with tags, fused parts or gaps): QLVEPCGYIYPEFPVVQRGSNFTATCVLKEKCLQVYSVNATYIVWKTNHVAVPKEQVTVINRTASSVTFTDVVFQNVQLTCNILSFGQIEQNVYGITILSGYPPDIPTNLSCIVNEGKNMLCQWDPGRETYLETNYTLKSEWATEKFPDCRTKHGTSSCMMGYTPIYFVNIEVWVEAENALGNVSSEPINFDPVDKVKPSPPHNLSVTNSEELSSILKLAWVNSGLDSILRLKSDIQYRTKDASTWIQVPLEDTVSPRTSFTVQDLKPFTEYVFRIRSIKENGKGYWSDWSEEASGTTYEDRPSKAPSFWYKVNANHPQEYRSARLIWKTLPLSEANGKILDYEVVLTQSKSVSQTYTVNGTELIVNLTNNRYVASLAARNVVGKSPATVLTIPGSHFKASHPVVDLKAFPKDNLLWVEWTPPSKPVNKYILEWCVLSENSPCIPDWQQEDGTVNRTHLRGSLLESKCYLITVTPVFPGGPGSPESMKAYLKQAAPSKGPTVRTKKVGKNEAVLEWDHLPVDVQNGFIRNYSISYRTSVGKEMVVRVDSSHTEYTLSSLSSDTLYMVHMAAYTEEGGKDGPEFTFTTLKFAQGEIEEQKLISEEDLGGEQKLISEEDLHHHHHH

B1: MAb16659 (antibody, V domains shown)
VH: QVQLVQSGPEVKKPGSSVKVSCKASGGTIDRNEITWVRQAPGQGLEWMGVIIPILGEAHYERKFQGRLTITMDESTSTAYMELSNLRSEDTAVYYCARERAARGYLDYWGQGTLVTVSS
VL: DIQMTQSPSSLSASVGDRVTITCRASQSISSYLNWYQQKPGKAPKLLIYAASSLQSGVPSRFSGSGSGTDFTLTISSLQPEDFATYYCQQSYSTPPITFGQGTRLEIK
notes: captured through anti-human Fc
The term Kd denotes the constant that tells how readily two partners part at equilibrium. Higher therefore signals a looser complex. By koff is commonly meant the rate constant with which the complex falls apart. Lower therefore signals a long-lived complex. A word on the kon: it is a measure of how fast the partners come together. As usually defined, the t½ is the time in which the quantity being followed falls by half. A lower t½ goes with rapid decline. Regarding B1, in assay [1], the “100 nM Ag Bound (RU)” value was found to be 227 RU, binding was put at a Kd of 0.0249 nM, the koff came out at 4.76e-05 s⁻¹ and the kon was determined as 1.91e+06 M⁻¹ s⁻¹. The t½ in assay [1] is 243 min. For the same molecule, in assay [2], the “100 nM Ag Bound (RU)” value amounted to 1 RU and the binding result was “no binding (tested: 100 nM)”. In addition, in assay [3], the “100 nM Ag Bound (RU)” value was 1 RU. Also, in assay [4], the “100 nM Ag Bound (RU)” value was 186 RU, binding was characterised by a dissociation constant (Kd) of 0.0366 nM, the koff was 6.28e-05 s⁻¹ and the on-rate (kon) stood at 1.72e+06 M⁻¹ s⁻¹. The t½ in assay [4] stood at 184 min. In assay [5], the “100 nM Ag Bound (RU)” value was found to be 1 RU. For the same molecule, in assay [6], the “100 nM Ag Bound (RU)” value is 2 RU and the binding result is on record as “no binding (tested: 100 nM)”.

B2: MAb16673 (antibody, V domains shown)
VH: EVQLVQSGAEVKKPGESLKISCKGSGYSFTSYWIDWVRQMPGKGLEWMGIIYPDDSDTRYSPSFQGQVTMSVDKSISTAYLQWSSLKASDTAIYYCARHERGIVEAGTDYYYYYGMDVWGQGTTVTVSS
VL: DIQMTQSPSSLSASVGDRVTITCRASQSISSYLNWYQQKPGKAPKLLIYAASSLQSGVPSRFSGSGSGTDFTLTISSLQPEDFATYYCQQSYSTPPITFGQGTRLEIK
notes: as for B1
Consider B2, for which, in assay [1], the “100 nM Ag Bound (RU)” value was 199 RU, the Kd worked out at 0.457 nM, the dissociation rate constant (koff) came to 0.000313 s⁻¹ and the kon stood at 684000 M⁻¹ s⁻¹. Further, the t½ in assay [1] is 37 min. In addition, in assay [2], the “100 nM Ag Bound (RU)” value is 1 RU and the binding result is reported as “no binding (tested: 100 nM)”. Also, in assay [3], the “100 nM Ag Bound (RU)” value was determined as 2 RU. Besides, in assay [4], the “100 nM Ag Bound (RU)” value turned out to be 169 RU, binding was put at a Kd of 0.173 nM, the koff stood at 9.66e-05 s⁻¹ and the kon came out at 560000 M⁻¹ s⁻¹. This molecule also displayed a t½ in assay [4] of 120 min. In assay [5], the “100 nM Ag Bound (RU)” value came to 0 RU. For the same molecule, in assay [6], the “100 nM Ag Bound (RU)” value came to 0 RU and the binding result is given as “no binding (tested: 100 nM)”.

B3: MAb16662 (antibody, V domains shown)
VH: EVQLVESGGGLVQPGGSLRLSCTASGFTFSNYAIFWVRQAPGKGLEYVSGISNNGVTKYYADSVRDRFTISRDNSRNTVSIQMDSLRTEDMAVYYCARENWGSDDGFDIWGQGTMVTVSS
VL: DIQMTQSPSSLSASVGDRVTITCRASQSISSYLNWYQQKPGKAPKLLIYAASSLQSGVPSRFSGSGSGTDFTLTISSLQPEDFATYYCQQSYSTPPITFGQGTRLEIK
notes: as for B1
As for B3, the “100 nM Ag Bound (RU)” value was 114 RU in assay [1]; 1 RU in assay [2]; 1 RU in assay [3]; 90 RU in assay [4]; -1 RU in assay [5]; -1 RU in assay [6]. The results for the Kd in assay [1] and in assay [4] were 4.15 nM and 0.772 nM, respectively. For the same molecule, the results for the koff in assay [1] and in assay [4] were 0.00265 s⁻¹ and 0.000479 s⁻¹, respectively. Also, the kon in assay [1] is 639000 M⁻¹ s⁻¹; in assay [4], 620000 M⁻¹ s⁻¹. For the same molecule, the t½ in assay [1] is 4 min; in assay [4], 24 min.

B4: MAb16669 (antibody, V domains shown)
VH: EVQLVESGGGLVQPGGSLRLSCAASGFTFSSYAMNWVRQAPGKGLEWVSAISGSGDSTYYTDSVKGRFTISRDNSKNTLYLQMNTLRAEDTAVYYCAKEEIVMLVGATPGWFDPWGQGTLVTVSS
VL: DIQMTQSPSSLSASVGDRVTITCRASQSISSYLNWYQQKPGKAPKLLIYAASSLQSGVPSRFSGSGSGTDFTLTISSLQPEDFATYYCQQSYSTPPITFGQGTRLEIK
notes: as for B1
In the case of B4, the “100 nM Ag Bound (RU)” value in assay [1] is 59 RU; in assay [2] it was -1 RU; in assay [3], -2 RU; in assay [4], 40 RU; in assay [5], 0 RU; in assay [6], -2 RU. Further, the results for the equilibrium dissociation constant (Kd) in assay [1] and in assay [4] were 5.85 nM and 8.21 nM, respectively. Besides, the koff in assay [1] was 0.00038 s⁻¹; in assay [4], 0.000241 s⁻¹. Besides, the on-rate constant (kon) is 65100 M⁻¹ s⁻¹ in assay [1] and 29300 M⁻¹ s⁻¹ in assay [4]. In addition, the t½ stood at 30 min in assay [1] and 48 min in assay [4].

B5: MAb16665 (antibody, V domains shown)
VH: QVQLVESGGGVVQPGRSLRLACAASGFTFRSYGMHWVRQAPGKGLEWVAVIWYDGSNKYYTDSVKGRFTISRDNSKNTLYLQMNSLRAEDTAMYYCAIDKWATVTTYLFDYWGQGTLVTVSS
VL: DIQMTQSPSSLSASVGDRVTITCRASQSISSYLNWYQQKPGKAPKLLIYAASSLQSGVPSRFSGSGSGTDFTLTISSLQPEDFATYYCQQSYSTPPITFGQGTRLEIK
notes: as for B1
With B5, the “100 nM Ag Bound (RU)” value was 172 RU in assay [1]; -1 RU in assay [2]; -1 RU in assay [3]; 158 RU in assay [4]; 0 RU in assay [5]; 0 RU in assay [6]. In addition, the figures for the Kd in assay [1] and in assay [4] were 3.92 nM and 2.72 nM, respectively. The koff in assay [1] turned out to be 0.00256 s⁻¹; in assay [4], 0.00109 s⁻¹. Further, the results for the kon in assay [1] and in assay [4] were 653000 M⁻¹ s⁻¹ and 399000 M⁻¹ s⁻¹, respectively. Further, the t½ was 5 min in assay [1] and 11 min in assay [4].

B6: MAb16676 (antibody, V domains shown)
VH: QVQLVQSGAEVMKPGASVKVSCRASGYTFSSYDINWVRQAPGQGLEWMGWISTATGNTNYPQKVQGRVTMTTDTSTNTAYMELRSLRSDDTAVYYCTREGNSKGWLDPWGQGTLVTVSS
VL: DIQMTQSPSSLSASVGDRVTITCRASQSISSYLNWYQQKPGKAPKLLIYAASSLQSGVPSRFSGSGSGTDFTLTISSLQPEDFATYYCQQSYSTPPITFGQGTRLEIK
notes: as for B1
B6: in assay [1], the “100 nM Ag Bound (RU)” value turned out to be 140 RU, binding was characterised by a dissociation constant (Kd) of 0.0566 nM, the koff was found to be 9.45e-05 s⁻¹ and the on-rate (kon) worked out at 1.67e+06 M⁻¹ s⁻¹. The same molecule had a t½ in assay [1] of 122 min. Also, in assay [2], the “100 nM Ag Bound (RU)” value came out at 0 RU and the binding result is “no binding (tested: 100 nM)”. Also, the “100 nM Ag Bound (RU)” value in assay [3] is 0 RU. In addition, in assay [4], the “100 nM Ag Bound (RU)” value is 119 RU, the Kd is 0.0836 nM, the koff is 7.13e-05 s⁻¹ and the kon stood at 853000 M⁻¹ s⁻¹. In addition, in assay [4], the t½ is 162 min. Moreover, the “100 nM Ag Bound (RU)” value in assay [5] is 0 RU. In assay [6], the “100 nM Ag Bound (RU)” value is 0 RU and the binding result was “no binding (tested: 100 nM)”.

B7: MAb16664 (antibody, V domains shown)
VH: QVQLVQSGTEVKKPGSSVKVSCKASGGTFSTYPINWVRQAPGQGLEWMGGIIPIFGTASYAQKFQGRVAITTDESTSTAYMELNSLRSEDTAVYYCARERPNWGSNDYWGQGTLVTVSS
VL: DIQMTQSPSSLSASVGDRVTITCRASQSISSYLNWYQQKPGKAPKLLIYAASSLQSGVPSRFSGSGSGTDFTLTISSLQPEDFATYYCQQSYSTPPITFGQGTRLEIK
notes: as for B1
For the molecule B7, the “100 nM Ag Bound (RU)” value in assay [1] was 37 RU; in assay [2] it was 1 RU; in assay [3], 0 RU; in assay [4], 26 RU; in assay [5], 0 RU; in assay [6], 0 RU. The results for the Kd in assay [1] and in assay [4] were 0.0815 nM and 0.116 nM, respectively. The dissociation rate constant (koff) in assay [1] worked out at 0.000109 s⁻¹; in assay [4], 0.000354 s⁻¹. The values for the kon in assay [1] and in assay [4] were 1.33e+06 M⁻¹ s⁻¹ and 3.05e+06 M⁻¹ s⁻¹, respectively. In addition, the t½ in assay [1] stood at 106 min; in assay [4], 33 min. In addition, the binding result in assay [2] and in assay [6] was “no binding (tested: 100 nM)” each time.

B8: MAb16666 (antibody, V domains shown)
VH: EVQLVESGGGLVQSGGSLRLSCAASGFTFSRYEMNWVRQAPGKGLEWVAYISNTGTTRDYSDSVKGRFTISRDNAKNSLYLQMSSLRVEDTAVYYCVREKFSGTSDWFDPWGQGTLVTVSS
VL: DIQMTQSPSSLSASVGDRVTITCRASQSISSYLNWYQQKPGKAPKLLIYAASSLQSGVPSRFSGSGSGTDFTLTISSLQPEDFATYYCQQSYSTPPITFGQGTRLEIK
notes: as for B1
As to B8, the “100 nM Ag Bound (RU)” value in assay [1] amounted to 285 RU; in assay [2] it was 0 RU; in assay [3], 1 RU; in assay [4], 253 RU; in assay [5], 1 RU; in assay [6], 1 RU. The figures for the Kd in assay [1] and in assay [4] were 0.298 nM and 0.12 nM, respectively. Moreover, the values for the dissociation rate constant (koff) in assay [1] and in assay [4] were 0.00036 s⁻¹ and 0.000137 s⁻¹, respectively. The kon in assay [1] came out at 1.21e+06 M⁻¹ s⁻¹; in assay [4], 1.14e+06 M⁻¹ s⁻¹. Besides, the values for the t½ in assay [1] and in assay [4] were 32 min and 85 min, respectively. In addition, the binding result in assay [2] and in assay [6] was “no binding (tested: 100 nM)” in each case.
